Laboratory results as given in US20250313626A1 (HARBOUR BIOMED SHANGHAI, published 2025).
Like-named read-outs stand apart in the source and are kept apart here. Each block holds one binder with its values, some of them ahead of it.

How the values were obtained:
[1] = target: T1, CD200R1a on PathHunter Jurkat CD200R1a signaling cells (Eurofins DiscoverX, 93-1136C19) (human, UniProt Q8TD46 25-348); test: cell-based or functional assay
T1 sequence: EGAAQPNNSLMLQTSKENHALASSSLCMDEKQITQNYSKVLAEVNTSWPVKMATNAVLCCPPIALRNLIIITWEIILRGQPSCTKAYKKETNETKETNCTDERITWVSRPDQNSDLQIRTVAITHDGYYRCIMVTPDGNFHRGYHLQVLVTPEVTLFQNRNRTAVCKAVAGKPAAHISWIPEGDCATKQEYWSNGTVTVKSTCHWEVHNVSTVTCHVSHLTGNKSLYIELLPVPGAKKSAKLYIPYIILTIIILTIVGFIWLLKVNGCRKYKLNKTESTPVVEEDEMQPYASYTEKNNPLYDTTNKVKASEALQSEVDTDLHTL

Mouse CD200R1-His = target: T2, Mouse CD200R1-His (mouse, UniProt Q9ES57 26-238, limits assumed); test: BLI (Octet), antibody captured on anti-human Fc sensor
T2 sequence (looked up): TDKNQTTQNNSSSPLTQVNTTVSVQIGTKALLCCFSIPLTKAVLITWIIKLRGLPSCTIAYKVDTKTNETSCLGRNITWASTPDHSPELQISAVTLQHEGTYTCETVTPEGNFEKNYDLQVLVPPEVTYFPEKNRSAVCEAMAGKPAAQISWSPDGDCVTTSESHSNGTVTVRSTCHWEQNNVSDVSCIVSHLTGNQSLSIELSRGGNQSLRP
Method: To determine the binding affinities of the anti-CD200R1 antibodies to CD200R1a proteins of various species (mouse, human, Cynomolgus macaques), bio-layer interferometry (BLI) assays were carried out using an Octet® RED96e instrument. Antibodies were produced as described in Example 3.4 and diluted to 5 μg/mL using freshly prepared 1× kinetic buffer (10× kinetic buffer (Catalog #18-1105, ForteBio) was diluted with PBS(Catalog #E607016-0500, BBI Life Sciences)) and were captured on the surface of anti-human Fc (AHC) Octet biosensors (Catalog #18-5060, ForteBio) to reach capture levels between 0.9-1.2 nm. The biosensors having the captured anti-CD200R1 antibodies were then dipped in wells containing 2-fold serial dilutions of CD200R1a proteins to detect association signals, followed by dissociation steps in wells containing 1× kinetic buffer. The sensorgrams were recorded and the reference signals were subtracted before curve fitting using ForteBio Data Analysis 11.0 software. Association rates (kₒₙ) and dissociation rates (koff) were calculated using a simple one-to-one Langmuir binding model. The equilibrium dissociation constant (KD) was calculated as the ratio of koff/kₒₙ.

[2] = target: T3, human CD200R1 isoform a on CHOK1 cells (CHOK1/hCD200R1a) (human, UniProt Q8TD46 25-348); test: flow cytometry, CHOK1/hCD200R1a cells (FITC-Mean); table beside the curves
T3 construct: also called CHOK1/CD200R1a
T3 sequence: T1 sequence
Method: (§1) This example is intended to investigate the in vitro binding activity of human anti-CD200R1 monoclonal antibodies to human/Cynomolgus macaques CD200R1a expressed on the surface of cells. The anti-CD200R1 antibodies were produced as described in Example 3.4 and the binding experiments at the cell level were performed using CHOK1/hCD200R1a and CHOK1-cynoCD200R1a.
(§2) Briefly, CHOK1/hCD200R1a cells and CHOK1-cynoCD200R1a cells were digested, and collected, and then were resuspended in PBS containing 2% BSA, respectively. The cell density was adjusted to 1×10⁶ cells/mL. The cells were seeded in a 96-well V-bottom plate (Corning, #3894) at 100 μL/well, followed by the addition of test antibodies and reference antibodies in a series diluted concentration, each at 100 μL/well. The cells were incubated away from light at 4° C. for 1 h. Thereafter, the cells in each well were rinsed twice with 100 μL of pre-cooled PBS containing 2% BSA, and centrifuged at 500 g at 4° C. for 5 min, and then the supernatant was discarded. 100 μL of fluorescent secondary antibody (Alexa Fluor 488-conjugated AffiniPure Goat Anti-Human IgG, Fcγ Fragment Specific, Jackson, #109-545-098, diluted in a 1:1000 ratio) was added in each well, and the plate was incubated away from light at 4° C. for 1 h. The cells in each well were rinsed twice with 100 μL of pre-cooled PBS containing 2% BSA, and centrifuged at 500 g at 4° C. for 5 min, and then the supernatant was discarded. Finally, the cells in each well were resuspended in 200 μL of pre-cooled PBS containing 2% BSA, and the fluorescence signal values were read using a BD CantoII flow cytometer.

[3] = target: T4, Cynomolgus macaques CD200R1 isoform a on CHOK1 cells (CHOK1/cynoCD200R1a) (Cynomolgus macaques); test: flow cytometry, CHOK1/cynoCD200R1a cells (APC-A Mean); table beside the curves
T4 chain: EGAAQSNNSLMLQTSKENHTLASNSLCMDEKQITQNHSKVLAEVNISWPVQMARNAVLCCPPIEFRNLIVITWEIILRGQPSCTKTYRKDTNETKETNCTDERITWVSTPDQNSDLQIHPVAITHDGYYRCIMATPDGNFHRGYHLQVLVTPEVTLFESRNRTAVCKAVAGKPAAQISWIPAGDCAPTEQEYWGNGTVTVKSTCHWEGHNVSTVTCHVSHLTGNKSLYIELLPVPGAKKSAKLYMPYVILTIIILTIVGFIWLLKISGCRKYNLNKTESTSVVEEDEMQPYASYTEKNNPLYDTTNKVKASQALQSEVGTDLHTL

[4] = target: T3, human CD200R1 isoform a on CHOK1 cells …; test: flow cytometry blocking assay: biotin-labelled human CD200 binding to CHOK1/hCD200R1a cells; y axis Inhibition %
Method: (§3) In brief, CHOK1/hCD200R1a cells were digested and resuspended in 2% BSA in PBS. […] The cells were placed at 4° C. and incubated for 1 hour in the dark. […] 100 μL/well of pre-cooled PBS containing 2% BSA was added to rinse the cells twice, centrifugation was performed at 500 g, 4° C. for 5 minutes, and the supernatant was discarded. Fluorescent secondary antibody (PE Streptavidin, BD, Cat #: 554061, 1:200) was added at 100 μL/well, and incubation was performed at 4° C. for 30 minutes in the dark. The cells were washed twice with 200 μL/well of pre-cooled PBS, and were centrifuged at 500 g, 4° C. for 5 minutes, and the supernatant was discarded. Finally, 200 μL/well of pre-cooled PBS was used to resuspend the cells, and the fluorescence signal values were read using ACEA Novocyte 3000 flow cytometer. IC50 values were calculated.

[5] = target: T3, human CD200R1 isoform a on CHOK1 cells …; test: flow cytometry, CHOK1/hCD200R1a cells (FITC-Mean); table beside the curves, head without unit, x axis Log [Ab] (nM)
[6] = target: T3, human CD200R1 isoform a on CHOK1 cells …; test: flow cytometry blocking assay: antibody titrated against biotin-labelled human CD200 binding to CHOK1/hCD200R1a cells; head prints EC50 without unit, x axis Log [Ab] (nM), y axis Inhibition %
Method: as §3

[7] = target: T1, CD200R1a on PathHunter Jurkat CD200R1a …; test: cell-based or functional assay; remark: listed apart in the source
[8] = target: T3, human CD200R1 isoform a on CHOK1 cells …; test: flow cytometry, CHOK1/hCD200R1a cells (FITC-Mean); table beside the curves; remark: listed apart in the source
Method: as §1, §2

[9] = target: T4, Cynomolgus macaques CD200R1 isoform a …; test: flow cytometry, CHOK1/cynoCD200R1a cells (APC-A Mean); table beside the curves
[10] = target: T3, human CD200R1 isoform a on CHOK1 cells …; test: flow cytometry blocking assay: biotin-labelled human CD200 binding to CHOK1/hCD200R1a cells; y axis Inhibition %; remark: listed apart in the source
Method: as §3

[11] = target: T3, human CD200R1 isoform a on CHOK1 cells …; test: flow cytometry, CHOK1/hCD200R1a cells (FITC-Mean); table beside the curves, head without unit, x axis Log [Ab] (nM); remark: listed apart in the source
[12] = target: T3, human CD200R1 isoform a on CHOK1 cells …; test: flow cytometry blocking assay: antibody titrated against biotin-labelled human CD200 binding to CHOK1/hCD200R1a cells; head prints EC50 without unit, x axis Log [Ab] (nM), y axis Inhibition %; remark: listed apart in the source
Method: as §3

binding result (Mouse CD200R1-His): no binding
B1: PR005512 (antibody, human IgG1, kappa, L234A L235A, V domains shown)
VH: QVQLVESGGGVVQPGRSLRLSCVASGFTFSSYGMHWVRQAPGKGLEWVAIIWNDGSNRYYADSVKGRFTISRDNSKNTLYLQMNSLRAEDTAVYYCARDRIVGAGFDYWGQGTLVTVSS
VL: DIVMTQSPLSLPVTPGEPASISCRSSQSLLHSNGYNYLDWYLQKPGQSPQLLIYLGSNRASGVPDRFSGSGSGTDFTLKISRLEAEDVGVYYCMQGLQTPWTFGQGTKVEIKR
notes: also called PR60-012; PRE04512
IC50 of the inhibition of CD200-induced PathHunter Jurkat CD200R1a luminescence (CHOK1/hCD200 cells as CD200 source); head without unit, x axis Log [Ab] (nM) [1]: 2.63 nM

EC50 [3]: 6.82 nM | MFI (MAX) [3]: 52200
B2: PR007974 (antibody, human IgG1, kappa, V domains shown)
VH: QVQLVESGGGVVQPGRSLRLSCAASGFTFSYYGFHWVRQAPGKGLEWLGLIWSDARHKDYADSVKGRFTISRDNSKNTLYLQMNSLRAEDTAVYYCARDRIVGEGFDYWGQGTLVTVSS
VL: DIVMTQSPLSLPVTPGEPASISCRSSQSLLHRSGYNYLDWYLQKPGQSPQLLIYLGSYRASGVPDRFSGSGSGTDFTLKISRVEAEDVGVYYCQQGIQTTYTFGQGTKLEIKR
notes: PTM variant of PR006839 (human IgG1)
MFI(Max) [2]: 18900 | Blocking(Max) [4]: 98% | EC50 [5]: 0.277 nM | EC50 [6]: 0.24 nM

EC50 [9]: 8.74 nM | MFI (MAX) [9]: 51700
B3: PR007444 (antibody, human IgG1, kappa)
heavy: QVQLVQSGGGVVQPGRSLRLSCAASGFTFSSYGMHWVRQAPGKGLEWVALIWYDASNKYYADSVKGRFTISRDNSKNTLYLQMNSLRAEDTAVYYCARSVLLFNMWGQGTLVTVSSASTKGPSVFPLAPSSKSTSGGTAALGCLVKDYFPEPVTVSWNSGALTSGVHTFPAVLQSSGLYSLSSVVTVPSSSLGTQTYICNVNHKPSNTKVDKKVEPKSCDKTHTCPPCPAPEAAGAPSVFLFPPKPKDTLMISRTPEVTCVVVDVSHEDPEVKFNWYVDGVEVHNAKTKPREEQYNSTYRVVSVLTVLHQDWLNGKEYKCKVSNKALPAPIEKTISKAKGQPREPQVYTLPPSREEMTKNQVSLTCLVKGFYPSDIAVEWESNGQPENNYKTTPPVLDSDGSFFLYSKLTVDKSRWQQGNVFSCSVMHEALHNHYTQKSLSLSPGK
light: DIQMTQSPPSLSASVGDRVTITCRASQSISSYLNWFQQKAGKAPKLLISATSNLQSGVPSRFSGSGSGTDFTLTISSLQPEDLATYYCQQTYSSPYTFGQGTKVEIKRTVAAPSVFIFPPSDEQLKSGTASVVCLLNNFYPREAKVQWKVDNALQSGNSQESVTEQDSKDSTYSLSSTLTLSKADYEKHKVYACEVTHQGLSSPVTKSFNRGEC
notes: PTM variant of PR006895 (human IgG1)
IC50 of the inhibition of CD200-induced PathHunter Jurkat CD200R1a luminescence (CHOK1/hCD200 cells as CD200 source) [7]: 0.755 nM | MFI(Max) [8]: 10800 | Blocking(Max) [10]: 86.6% | EC50 [11]: 0.15 nM | EC50 [12]: 0.0926 nM
